Laboratory results taken from the supplement of paper PMC12764529.
± gives the half width of the 95% confidence interval.

What was measured:
[1] = folding stability dG unfold from trypsin proteolysis; higher = more stable
Method in brief: (§1)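 K50 was inferred by Bayesian fitting of sequencing counts obtained after protease digestion of designed mini-proteins. Unfolding free energy was derived by comparison with a sequence-predicted unfolded-state K50 and a shared folded-state K50, for each protease or both combined. The mini-proteins were under 80 residues, had no cysteine, were carried in a PA-tagged cDNA display construct, and were kept only if AlphaFold2 dimer inter-PAE exceeded 15.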

[2] = folding stability dG unfold from chymotrypsin proteolysis; higher = more stable
Method in brief: as §1

[3] = folding stability dG unfold (combined trypsin and chymotrypsin); higher = more stable
Method in brief: as §1

SMPKTIELEIDEDLPEEEVRARLLAQGFEEIEFHELEDPEVRRVTATRPEDDETVVVTVRPPPVPPDAPGSA [r9_1090_JUSTAS]
folding stability dG unfold [1]: 2.38 ± 0.096 kcal/mol
folding stability dG unfold [2]: 2.29 ± 0.079 kcal/mol
folding stability dG unfold [3]: 2.28 ± 0.18 kcal/mol

SMPLKVTVEVYEPGGNPLGSKTYEVEPGETLTFTFPRPVKGRVTITDPNADNPQTVTGDPATGTLTFPLVSA [r9_272_JUSTAS]
folding stability dG unfold [1]: 0.587 ± 0.056 kcal/mol
folding stability dG unfold [2]: 0.909 ± 0.086 kcal/mol
folding stability dG unfold [3]: 0.858 ± 0.069 kcal/mol

SMPLSEEEARALAEALAAEVAAAAAAAGVAGVEVPVEISRTEEGGWTITLTVTLHAGAAPVGVRPVVVEVAS [r1_364_JUSTAS]
folding stability dG unfold [1]: 1.19 ± 0.027 kcal/mol
folding stability dG unfold [2]: 1.81 ± 0.026 kcal/mol
folding stability dG unfold [3]: 1.59 ± 0.081 kcal/mol

SMPMTVEEFLEANPDVILIRLPNEKVIFINPEEEKAFVLLPETGEVLVIDATLEEVLELVPEFGAEILDESA [r9_721_TrMRF]
folding stability dG unfold [1]: 2 ± 0.087 kcal/mol
folding stability dG unfold [2]: 2.558 ± 0.025 kcal/mol
folding stability dG unfold [3]: 2.34 ± 0.052 kcal/mol

SMPNTIEEIRFTFTLPDDTPVESEVDPDGKVTGTYPDGLKIEATLEPDSGKLTVKVTFPDGLPAEATIDLSA [r9_99_TrMRF]
folding stability dG unfold [1]: 1.6 ± 0.09 kcal/mol
folding stability dG unfold [2]: 1.78 ± 0.042 kcal/mol
folding stability dG unfold [3]: 1.7 ± 0.089 kcal/mol

SMREITVTLPSEELAEELREAAEALGVEEVEVSRLPEDRLEIRIKTNSDPESVIQALKDLAEKRGLEVAASA [r9_1003_JUSTAS]
folding stability dG unfold [1]: 1.73 ± 0.074 kcal/mol
folding stability dG unfold [2]: 1.66 ± 0.086 kcal/mol
folding stability dG unfold [3]: 1.61 ± 0.085 kcal/mol

SMRIVTEDGQELTIVLPKVPPNMTPEQLRKALEEAGVEVEEITFDEETGEVTVKIRFKDAEKAEEALKKASA [r9_1154_TrROS_Hall]
folding stability dG unfold [1]: 1.51 ± 0.059 kcal/mol
folding stability dG unfold [2]: 0.957 ± 0.12 kcal/mol
folding stability dG unfold [3]: 1.21 ± 0.14 kcal/mol

SMRVRPDGYAVVIEVRVTEDAGPPPPPFEAIRDPETDRVTVVAGATPEEIVAFAEFPGVEVERIEVIPLLSA [r9_827_TrMRF]
folding stability dG unfold [1]: 0.24 ± 0.1 kcal/mol
folding stability dG unfold [2]: 0.675 ± 0.086 kcal/mol
folding stability dG unfold [3]: 0.572 ± 0.099 kcal/mol

SMSLTIPEELIEAIKKALEELEPGEEVTITYNLPDGSVITVKVVGKGEVTITVYSSPDSQTQTYTFEIKESA [r9_132_JUSTAS]
folding stability dG unfold [1]: 3.15 ± 0.061 kcal/mol
folding stability dG unfold [2]: 3.313 ± 0.023 kcal/mol
folding stability dG unfold [3]: 3.25 ± 0.069 kcal/mol

SMSPEIVEKIRKFLEEKGYSFTVERIPETGKVIINIDVRGNGKTRRVNIVFDENDPEKGIDLIKEIIESGSA [r9_42_TrMRF]
folding stability dG unfold [1]: 3.51 ± 0.1 kcal/mol
folding stability dG unfold [2]: 4.5 ± 0.076 kcal/mol
folding stability dG unfold [3]: 4.22 ± 0.085 kcal/mol

SMTEELVIDFPDGVKATVRRFGDGEVTITIDWPTDNPELRKKGGIKALVDAIAKELGLDPSKVKVYTRNASA [r9_401_TrMRF]
folding stability dG unfold [1]: 3.05 ± 0.086 kcal/mol
folding stability dG unfold [2]: 4.12 ± 0.087 kcal/mol
folding stability dG unfold [3]: 3.75 ± 0.11 kcal/mol

SMTKTIPVTIEVDPSLSEEEIEALVEKVKEEIKEKAEAEGGKVKVTVTIEPDPNKPVVHGTITITKPKKLSA [r9_1161_JUSTAS]
folding stability dG unfold [1]: 0.699 ± 0.049 kcal/mol
folding stability dG unfold [2]: -0.499 ± 0.18 kcal/mol
folding stability dG unfold [3]: 0.165 ± 0.13 kcal/mol

SMTLIVRVEVENENGEKIEKEVEVEVEPGETIEELLKKLNLSEEEVKKVKIEVYVIKDGKLEKKEFTLEKSA [r9_755_TrROS_Hall]
folding stability dG unfold [1]: 1.29 ± 0.2 kcal/mol
folding stability dG unfold [2]: 2.61 ± 0.077 kcal/mol
folding stability dG unfold [3]: 2.29 ± 0.35 kcal/mol

SMTLPLLFVFPVNSPEELEKARKLAEEEVKELAEELGVKVKIEKVEYFVNPEGDYVLIRAYVTVTSPEEESA [r9_105_TrMRF]
folding stability dG unfold [1]: 3.18 ± 0.054 kcal/mol
folding stability dG unfold [2]: 4.07 ± 0.1 kcal/mol
folding stability dG unfold [3]: 3.76 ± 0.086 kcal/mol

SMTLTIEVDPNDPAKVKALIDSTPPDTTVTLVFPQEDGSKPVKTITVKPPLEKPISPENMTPKNVAARKKSA [r9_1103_JUSTAS]
folding stability dG unfold [1]: -0.782 ± 0.69 kcal/mol
folding stability dG unfold [2]: 0.481 ± 0.099 kcal/mol
folding stability dG unfold [3]: 0.118 ± 0.18 kcal/mol

SMTPEEEAKRKAEEEAEKLKEEIKKKLKEEGVPKNVTFKFERDIEITLTDENGNVIGTRKIKIKFTVPLPSA [r9_494_JUSTAS]
folding stability dG unfold [1]: 2.14 ± 0.29 kcal/mol
folding stability dG unfold [2]: 1.79 ± 0.13 kcal/mol
folding stability dG unfold [3]: 1.85 ± 0.39 kcal/mol

SMTVKIELEVEIEVPETPEELRKLAEALAEELGIEEVKVVEIEYDPETKTVRVKVEITVKLPPPPPEEEESA [r9_918_TrROS_Hall]
folding stability dG unfold [1]: 3.11 ± 0.14 kcal/mol
folding stability dG unfold [2]: 2.89 ± 0.25 kcal/mol
folding stability dG unfold [3]: 3.13 ± 0.21 kcal/mol

SMTVSATAVPFGDRLVVTVTVTVDPTLFPDRPPGPAVWERVARELARELGIDSVTLAPLPDDTFVALFDDSA [r9_883_TrMRF]
folding stability dG unfold [1]: 2.41 ± 0.069 kcal/mol
folding stability dG unfold [2]: 2.46 ± 0.04 kcal/mol
folding stability dG unfold [3]: 2.48 ± 0.084 kcal/mol

SMTVTLPDGTTVETSVSTEKLPNGTVVTTTTTTFTTPDGTVVPSTTVSVSPAPPTELPFTVLYRPEGSLLSA [r9_1168_JUSTAS]
folding stability dG unfold [1]: 0.0778 ± 0.015 kcal/mol
folding stability dG unfold [2]: -0.122 ± 0.16 kcal/mol
folding stability dG unfold [3]: 0.00633 ± 0.083 kcal/mol

SMVEVLPDGTVVLAGELPPNVSIEEFLNSLPGLEIASVEFEPDPETGVTHFVFVVTPDGRVYVGSVPLGKSA [r9_238_TrMRF]
folding stability dG unfold [1]: 1.25 ± 0.04 kcal/mol
folding stability dG unfold [2]: 2.63 ± 0.041 kcal/mol
folding stability dG unfold [3]: 2.25 ± 0.056 kcal/mol

SMVFVEIFYDPIKKKKYIKIVIFLPPNDPEKIKELAEKIKKEIEKFFEELGLKVDKIEVFVFTFPPDFPLSA [r9_117_TrMRF]
folding stability dG unfold [1]: 3.38 ± 0.23 kcal/mol
folding stability dG unfold [2]: 4.99 ± 0.067 kcal/mol
folding stability dG unfold [3]: 4.6 ± 0.22 kcal/mol
